Substitutions are numbered along the chain they refer to. In names and notes the source's numbering stands.
T1: Human CD3eg linker (human)
T1 construct: single-chain construct; also called recombinant human CD3
T1 chain: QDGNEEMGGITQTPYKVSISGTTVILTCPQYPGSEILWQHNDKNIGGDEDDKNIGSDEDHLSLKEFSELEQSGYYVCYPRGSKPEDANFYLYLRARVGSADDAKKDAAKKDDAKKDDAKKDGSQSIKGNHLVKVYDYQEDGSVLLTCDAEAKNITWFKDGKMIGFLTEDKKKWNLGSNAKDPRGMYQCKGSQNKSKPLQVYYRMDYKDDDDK

B1: dBBDu183H T100bF/dBBDu072L (antibody, name in Kabat numbering, V domains shown)
VH: QVQLVESGGGLVQPGRSLRLSCAASGFTFSNAWMHWVRQAPGKGLEWVAQIKDKGNAYAAYYAPSVKGRFTISRDDSKNSIYLQMNSLKTEDTAVYYCHYVHYASASFVLPAFGVDAWGQGTTVTVSS
VL: DIVMTQSPLSLPVTPGEPASISCQASQELVHMNRNTYLHWYQQKPGQAPRLLIYKVSNRFPGVPDRFSGSGSGTDFTLKISRVEAEDVGVYYCAQGTSVPFTFGQGTKLEIK
B2: dBBDu183H V63R/dBBDu072L (antibody, name in Kabat numbering, V domains shown)
VH: B1 VH with V66R, F108T
VL: B1 VL
B3: dBBDu183H V63Q/dBBDu072L (antibody, name in Kabat numbering, V domains shown)
VH: B1 VH with V66Q, F108T
VL: B1 VL
B4: dBBDu183H V95D/dBBDu072L (antibody, name in Kabat numbering, V domains shown)
VH: B1 VH with V101D, F108T
VL: B1 VL
B5: dBBDu183H V95K/dBBDu072L (antibody, name in Kabat numbering, V domains shown)
VH: B1 VH with V101K, F108T
VL: B1 VL
B6: dBBDu183H V95N/dBBDu072L (antibody, name in Kabat numbering, V domains shown)
VH: B1 VH with V101N, F108T
VL: B1 VL
B7: dBBDu183H V95H/dBBDu072L (antibody, name in Kabat numbering, V domains shown)
VH: B1 VH with V101H, F108T
VL: B1 VL
B8: dBBDu183H V63D/dBBDu072L (antibody, name in Kabat numbering, V domains shown)
VH: B1 VH with V66D, F108T
VL: B1 VL
B9: dBBDu183H T100bS/dBBDu072L (antibody, name in Kabat numbering, V domains shown)
VH: B1 VH with F108S
VL: B1 VL
B10: dBBDu183H V63Y/dBBDu072L (antibody, name in Kabat numbering, V domains shown)
VH: B1 VH with V66Y, F108T
VL: B1 VL
B11: dBBDu183H V95F/dBBDu072L (antibody, name in Kabat numbering, V domains shown)
VH: B1 VH with V101F, F108T
VL: B1 VL
B12: dBBDu183H V95G/dBBDu072L (antibody, name in Kabat numbering, V domains shown)
VH: B1 VH with V101G, F108T
VL: B1 VL
B13: dBBDu183H T100bK/dBBDu072L (antibody, name in Kabat numbering, V domains shown)
VH: B1 VH with F108K
VL: B1 VL
B14: dBBDu183H T100bN/dBBDu072L (antibody, name in Kabat numbering, V domains shown)
VH: B1 VH with F108N
VL: B1 VL
B15: dBBDu183H V95S/dBBDu072L (antibody, name in Kabat numbering, V domains shown)
VH: B1 VH with V101S, F108T
VL: B1 VL
B16: dBBDu183H V95Y/dBBDu072L (antibody, name in Kabat numbering, V domains shown)
VH: B1 VH with V101Y, F108T
VL: B1 VL
B17: dBBDu183H V95T/dBBDu072L (antibody, name in Kabat numbering, V domains shown)
VH: B1 VH with V101T, F108T
VL: B1 VL
B18: dBBDu183H V63T/dBBDu072L (antibody, name in Kabat numbering, V domains shown)
VH: B1 VH with V66T, F108T
VL: B1 VL
B19: dBBDu183H V63K/dBBDu072L (antibody, name in Kabat numbering, V domains shown)
VH: B1 VH with V66K, F108T
VL: B1 VL
B20: dBBDu183H V95W/dBBDu072L (antibody, name in Kabat numbering, V domains shown)
VH: B1 VH with V101W, F108T
VL: B1 VL
B21: dBBDu183H T100bH/dBBDu072L (antibody, name in Kabat numbering, V domains shown)
VH: B1 VH with F108H
VL: B1 VL
B22: dBBDu183H V100cH/dBBDu072L (antibody, name in Kabat numbering, V domains shown)
VH: B1 VH with F108T, V109H
VL: B1 VL
B23: dBBDu183H T100bG/dBBDu072L (antibody, name in Kabat numbering, V domains shown)
VH: B1 VH with F108G
VL: B1 VL
B24: dBBDu183H V63S/dBBDu072L (antibody, name in Kabat numbering, V domains shown)
VH: B1 VH with V66S, F108T
VL: B1 VL
B25: dBBDu183H T100bR/dBBDu072L (antibody, name in Kabat numbering, V domains shown)
VH: B1 VH with F108R
VL: B1 VL
B26: dBBDu183H V95Q/dBBDu072L (antibody, name in Kabat numbering, V domains shown)
VH: B1 VH with V101Q, F108T
VL: B1 VL
B27: dBBDu183H V63E/dBBDu072L (antibody, name in Kabat numbering, V domains shown)
VH: B1 VH with V66E, F108T
VL: B1 VL
B28: dBBDu183H V95R/dBBDu072L (antibody, name in Kabat numbering, V domains shown)
VH: B1 VH with V101R, F108T
VL: B1 VL
B29: dBBDu183H V63F/dBBDu072L (antibody, name in Kabat numbering, V domains shown)
VH: B1 VH with V66F, F108T
VL: B1 VL
B30: dBBDu183H V95E/dBBDu072L (antibody, name in Kabat numbering, V domains shown)
VH: B1 VH with V101E, F108T
VL: B1 VL
B31: dBBDu183H V63W/dBBDu072L (antibody, name in Kabat numbering, V domains shown)
VH: B1 VH with V66W, F108T
VL: B1 VL
B32: dBBDu183H V100cE/dBBDu072L (antibody, name in Kabat numbering, V domains shown)
VH: B1 VH with F108T, V109E
VL: B1 VL
B33: dBBDu183H V63G/dBBDu072L (antibody, name in Kabat numbering, V domains shown)
VH: B1 VH with V66G, F108T
VL: B1 VL
B34: dBBDu183H T100bV/dBBDu072L (antibody, name in Kabat numbering, V domains shown)
VH: B1 VH with F108V
VL: B1 VL
B35: dBBDu183H T100bQ/dBBDu072L (antibody, name in Kabat numbering, V domains shown)
VH: B1 VH with F108Q
VL: B1 VL
B36: dBBDu183H V63N/dBBDu072L (antibody, name in Kabat numbering, V domains shown)
VH: B1 VH with V66N, F108T
VL: B1 VL
B37: dBBDu183H T100bW/dBBDu072L (antibody, name in Kabat numbering, V domains shown)
VH: B1 VH with F108W
VL: B1 VL
B38: dBBDu183H V100cD/dBBDu072L (antibody, name in Kabat numbering, V domains shown)
VH: B1 VH with F108T, V109D
VL: B1 VL
B39: dBBDu183H T100bY/dBBDu072L (antibody, name in Kabat numbering, V domains shown)
VH: B1 VH with F108Y
VL: B1 VL
B40: dBBDu183H V63H/dBBDu072L (antibody, name in Kabat numbering, V domains shown)
VH: B1 VH with V66H, F108T
VL: B1 VL
B41: dBBDu183H V100cG/dBBDu072L (antibody, name in Kabat numbering, V domains shown)
VH: B1 VH with F108T, V109G
VL: B1 VL
B42: dBBDu183H V100cF/dBBDu072L (antibody, name in Kabat numbering, V domains shown)
VH: B1 VH with F108T, V109F
VL: B1 VL

Molecular target: T1, Human CD3eg linker
Experiment: SPR, vs unmutated H183/L072

Binder | fold change of affinity
B1 | 1.2 fold
B2 | 1.2 fold
B3 | 1.2 fold
B4 | 0 fold
B5 | 0 fold
B6 | 0 fold
B7 | 0 fold
B8 | 1.3 fold
B9 | 1.5 fold
B10 | 1.1 fold
B11 | 0 fold
B12 | 0 fold
B13 | 1.3 fold
B14 | 1 fold
B15 | 0 fold
B16 | 0 fold
B17 | 0 fold
B18 | 1.2 fold
B19 | 1.3 fold
B20 | 0 fold
B21 | 1.2 fold

Binder | fold change of affinity
B22 | 1.2 fold
B23 | 1.1 fold
B24 | 1.1 fold
B25 | 1.8 fold
B26 | 0 fold
B27 | 1.1 fold
B28 | 0 fold
B29 | 1.1 fold
B30 | 0 fold
B31 | 0.8 fold
B32 | 0.8 fold
B33 | 1 fold
B34 | 1.2 fold
B35 | 1.1 fold
B36 | 1.3 fold
B37 | 1.8 fold
B38 | 0.8 fold
B39 | 1.8 fold
B40 | 1 fold
B41 | 1.5 fold
B42 | 1.8 fold

From US20210388087A1 (Chugai, published 2021)
